Results: US20090062180A1 (TEL AVIV UNIVERSITY FUTURE TECHNOLOGY DEVELOPMENT L P, published 2009)
Square brackets hold non-standard residues; d marks the D form. Ends that are not written are not given here. * marks the point of attachment. Myristoyl = CCCCCCCCCCCCCC(=O)*; pS = N[C@@H](COP(=O)(O)O)C(=O)O

Experiments:
[1] = target: T1, Purified recombinant rabbit GSK-3β (glycogen synthase kinase-3β) (rabbit, UniProt A0A5F9DUX8 1-420); assay: cell-based or functional assay
[2] = target: T1, Purified recombinant rabbit GSK-3β …; assay: cell-based or functional assay; remark: listed apart in the source
[3] = target: endogenous GSK-3 (in HEK 293 cells); assay: cell-based or functional assay
[4] = target: mitogen activated protein kinase (MAPK); assay: cell-based or functional assay
[5] = target: catalytic subunit of cAMP dependent protein kinase (PKA); assay: cell-based or functional assay
[6] = target: casein kinase-2 (CK-2); assay: cell-based or functional assay
[7] = target: Cyclic dependent protein kinase, cdc2; assay: cell-based or functional assay
[8] = target: Protein kinase C-δ; assay: cell-based or functional assay
[9] = target: Protein kinase B (PKB); assay: cell-based or functional assay
[10] = target: T1, Purified recombinant rabbit GSK-3β …; assay: Lineweaver-Burk analysis of the in vitro GSK-3 kinase assay; competitive against PGS-1 peptide substrate
Procedure: The results represent phosphate incorporation into PGS-1 peptide substrate (CPM). […] Each point is a mean of duplicate samples.
In vitro inhibition assays: Purified recombinant rabbit GSK-30 (Eldar-Finkelman et al., 1996) was incubated with peptide substrate PGS-1 ([…](p)EDEEE) (SEQ ID NO:15) and with a peptide inhibitor at indicated concentrations. The reaction mixture included Tris 50 mM (pH=7.3), 10 mM MgAc, ³²P[γ-ATP] (100 μM), 0.01% β-mercaptoethanol, and was incubated for 10 minutes at 30° C. Reactions were spotted on phosphocellulose paper (p81), washed with 100 mM phosphoric acid, and counted for radioactivity (as described in Eldar-Finkelman et al., 1996).

PAPPQ[pS]P [Peptide No. 12 PAPPQS(p)P]
Inhibitor functionality (IC50) [1]: > 800 µM

Myristoyl-GKEAPPAPPQ[pS]P [L803-mts (N-Myristol-GKEAPPAPPQS(p)P)]
IC50 (comparative GSK-3β inhibition assay, PGS-1 substrate; FIG. 4) [2]: 40 µM | IC50 (in vitro GSK-3 kinase inhibition, PGS-1 substrate; FIGS. 3a-b) [2]: 40 µM | glycogen synthase activity in HEK 293 cells [3]: 2.5 fold

KEAPPAPPQ[pS]P (also called peptide 9) [Peptide No. 9 KEAPPAPPQS(p)P (L803)]
IC50 (in vitro GSK-3 kinase inhibition, PGS-1 substrate) [2]: 150 µM | % Maximal activity (kinase activity with 200 µM L803) [4]: 106% | % Maximal activity (kinase activity with 200 µM L803) [5]: 86% | % Maximal activity (kinase activity with 200 µM L803) [6]: 117% | % Maximal activity (kinase activity with 200 µM L803) [7]: 90% | % Maximal activity (kinase activity with 200 µM L803) [8]: 111% | % Maximal activity (kinase activity with 200 µM L803) [9]: 91% | Ki [10]: 70 µM
